Reference: the nanobody polyreactivity screen of Harvey et al. (2022)

Experiment: yeast display, Sf9 membrane polyspecificity reagent, FACS + sequencing; frameworks hold sequencing errors
Method in brief: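 Galactose induction of a Saccharomyces cerevisiae BJ5465 synthetic nanobody display library ran 36–48 hours. The cells were then stained for 1 hour at 4 °C with 10% biotinylated, detergent-solubilized Sf9 membrane reagent, pulled down on streptavidin microbeads and FACS-sorted into low and high (top ~1%) gates on expression and reagent-binding fluorescence. Labels for polyreactivity follow the gate of origin.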

| Sequence | polyreactivity (PSR sort gate) |
| --- | --- |
| QVQLVESGGGLVQAGGSLRLSCAASGSTYGYAMGWYRQAPGKERELVAAISSSGGRTYYADSVKGRFTISRDNAKNTVYLQMNSLKPEDTAVYYCAAGGFSQHGHGYWGQGTQVTVSS | high polyreactivity |
| QVQLVESGGGLVQAGGSLRLSCAASGSTYHQYTMGWYRQAPRKERELVSTINNGGITNYADSLKGRFTISRDNAKKTVYLQLISQNPEDTAVYYCAADYSYYGRYGRYDYWGQGTQVTVSS | low polyreactivity |
| QVQLVESGGGLVQAGGSLRLSCAASGSTYIVYAMGWYRQAPGKERELVAAIRGRGGSTYYADSVKGRFTISRDNAKNTVYLQMNSLKPEVTAVYYCAARGISPLEMYYWGQGTQVTVSS | high polyreactivity |
| QVQLVESGGGLVQAGGSLRLSCAASGSTYRPYAMGWYRQAPVKERELVAAISWSGGRTYYADSVKGRFTISRDNAKNNVYLPMNSLKPEDTAVYYCNRAGRQPKNTYDYWGQGTQVTVSS | high polyreactivity |
| QVQLVESGGGLVQAGGSLRLSCAASGSTYSYYTMGWYIQAPGKERELVATISRRGASTYYADSVKGRFTISRDNAKNTVYLQMNSLKPEDTAVYYCAKSYYYGRSATRPEYDYWGQGTQVTVSS | high polyreactivity |
| QVQLVESGGGLVQAGGSLRLSCAASGSTYTGYTMGWYRQAPGKERELVAAITYRGGSTYYADSVKGRITISRDNAKNTVYLQMNSLKREDTEVYYCAARSFFIMYYWGQGTQVTVSS | low polyreactivity |
| QVQLVESGGGLVQAGGSLRLSCAASGSTYTHNTMGWYRQAPGKERELVAAISKSGGRTYYADSVKGRFTISRDHAKNTVYLQMNSLKPEVTAVYYCAARVTGVGDYYWGQGTQVTGSS | high polyreactivity |
| QVQLVESGGGLVQAGGSLRLSCAASGSTYVQYAMGWYRKAPGKERELVPVISYSGGSTYYADSVKGRFTISRDNAKNTVYLQMNSLKPEDTAVYYCAAVYGGGHRKMDYWGQGTQVTVSS | low polyreactivity |
| QVQLVESGGGLVQAGGSLRLSCAASGSTYYYAMGWSRQAPGKERELVAAISSSSGSTYYADSVKGRFTISRDNAKNTVYLQMNSLKPEDTAVYYCAAEGYKGWVYEYDYWGQGTQVTVSS | low polyreactivity |
| QVQLVESGGGLVQAGGSLRLSCAASGSYLRYYAMGWYRQAPGKERELVAAISRSGTKTYYADSVKGRFTISRDNAKKTVYLQMNSLKPEDTAVYYCAARGYYRDYDSWGQGTQVTGSS | high polyreactivity |
| QVQLVESGGGLVQAGGSLRLSCAASGTFERKVMGWYRPAPGKERELVAAISRSGSSTYYADSVKGRFTISRDNAKNTVYLQMNSLKPEDTAVYYCAARGTKQHFNYWGQGTQVTVSS | high polyreactivity |
| QVQLVESGGGLVQAGGSLRLSCAASGTFFGYALGWYRQAPGKERELVAAITPGGSTYYADSVKGRFTISRDNAKNTVYLQMNSLKPEDTAVYYCARVYSRWSYRYDYWGQGTQVTVSS | low polyreactivity |
| QVQLVESGGGLVQAGGSLRLSCAASGTFGYYTMGWYRQAPGHERELVAAITRSGGSTYDADSVKGRFTISRDNAKNTVYLQMNSLKPEDTAVYYCATELHAWSSWNRYRAYYYWGQGTQVTVSS | high polyreactivity |
| QVQLVESGGGLVQAGGSLRLSCAASGTFHWYAMGWYIQAPGKEMELVAAITGSGGNTYYADSVKGRFTISRDNAKNTVYLQMNSLKPEDTAVYYCAARIYTWSVEYTGYGYWGQGTQVTVSS | high polyreactivity |
| QVQLVESGGGLVQAGGSLRLSCAASGTFNYYAMGWYRQAPGKERELVAAISNGDSTTYADSVKGRFTISRDNAKNTVYLQMNSLKPEDTAVYYCAAYRYTPRTSRGYYYWGQGTQVTVSS | low polyreactivity |
| QVQLVESGGGLVQAGGSLRLSCAASGTFQVNAMGWYIQAPGKERELVAAINSNGGSTYYADSVKGRFTISRDNAKNTVYLQMNSLKPEDTAVYYCAAVYQRRRSYYWGQGTQVTVSS | high polyreactivity |
| QVQLVESGGGLVQAGGSLRLSCAASGTFRVYAMGWYRQAPGKERELVAAISRSGTSTYYSDSVKGRFTISRDNAKNTVYLQMNSLKPEDTAVYYCNDVVRGQYDWGQGTQVTVSS | high polyreactivity |
